Measured values from the supplement of paper PMC10724198.
± gives the standard deviation of the averaged measurements.

What follows are sequences tested on Saccharomyces cerevisiae (assay: protein stability index of tFT-peptide fusion (C-terminal peptide) (PSI (0-1 scale)); higher = more stable (slower turnover)). Conditions: genetic background: das1 deletion; temperature: 30 C.
Description: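 MPS profiling in S. cerevisiae of the yeast C-terminome library: the last 12 aa of each annotated ORF are fused to the C-terminus of a sfGFP-mCherry timer, after a GGGS linker. Cells are FACS-sorted into 8 mCherry/sfGFP bins and deep-sequenced. PSI runs from 0 (unstable) to 1 (stable); wild type and das1Δ backgrounds, two technical replicates each.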
With “FFHRISHFLESA [YLR299C-A C-terminal 12 aa]” the protein stability index was 0.704 ± 0.018. FGDCHLENSHLH [SPO75 C-terminal 12 aa] showed a protein stability index of 0.7041 ± 0.0012. FGICAIHWGIKV [COQ5 C-terminal 12 aa] showed a protein stability index of 0.385 ± 0.02. Work on FGLFKKKNKSKK [SVL3 C-terminal 12 aa] yielded a protein stability index of 0.727 ± 0.027. FGSSRSEWYLAL [YPL114W C-terminal 12 aa] showed a protein stability index of 0.701 ± 0.029. FGWFDMNMEQGF [SEF1 C-terminal 12 aa] showed a protein stability index of 0.7562 ± 0.0074. With “FHSMAHLSLHQY [YOR394C-A C-terminal 12 aa]” the protein stability index was 0.7202 ± 0.00097. In the case of FIREFVLKNYSK [SNO2 C-terminal 12 aa], the protein stability index is reported as 0.669 ± 0.0099. FIYKRNKKFILN [YPQ1 C-terminal 12 aa] showed a protein stability index of 0.725 ± 0.014. Sequence “FKCVHTPCNVYI [YER078W-A C-terminal 12 aa]” has a protein stability index of 0.679 ± 0.0076. In the case of FKVDDNVDFPSA [RPN2 C-terminal 12 aa], the protein stability index is reported as 0.681 ± 0.016. Work on FLLVLFFICIIL [YOL014W C-terminal 12 aa] yielded a protein stability index of 0.366 ± 0.013. FMGGFLSKGNKR [ROG3 C-terminal 12 aa] showed a protein stability index of 0.706 ± 0.012. FMGLGCVISEEL [TFB3 C-terminal 12 aa] showed a protein stability index of 0.693 ± 0.01. In the case of FNISDYFSDIHE [ORC5 C-terminal 12 aa], the protein stability index is reported as 0.744 ± 0.02. With FPFELRREQTEG [PET130 C-terminal 12 aa] the protein stability index was 0.6976 ± 0.0057. In the case of “FPKLALVCTIFS [YGR146C-A C-terminal 12 aa]”, the protein stability index is reported as 0.369 ± 0.019. FQERIKNKNILK [CWC27 C-terminal 12 aa] showed a protein stability index of 0.739 ± 0.008. FRCKFKERKVDG [REP1 C-terminal 12 aa] was tested, and the protein stability index was 0.682 ± 0.0088. FRSSAGLRSSKV [MIC10 C-terminal 12 aa] gave a protein stability index of 0.742 ± 0.016. FSGDMSFTVYQL [POA1 C-terminal 12 aa] was tested, and the protein stability index was 0.741 ± 0.01. For FSIVALEVWRVG [OXR1 C-terminal 12 aa], the protein stability index was 0.552 ± 0.013. FSSEQGNPKEEK [FMP10 C-terminal 12 aa] gave a protein stability index of 0.702 ± 0.034. FTIYEKVLVMLA [CTP1 C-terminal 12 aa] gave a protein stability index of 0.286 ± 0.017. FTRRGWSSFFKQ [PCL9 C-terminal 12 aa] was tested, and the protein stability index was 0.684 ± 0.0086. FVDGIANSKKST [SRB7 C-terminal 12 aa] gave a protein stability index of 0.699 ± 0.01. FVFVNEFDVYTY [GPI12 C-terminal 12 aa] was tested, and the protein stability index was 0.716 ± 0.018. With FWEKRWKDGWDE [ERV1 C-terminal 12 aa] the protein stability index was 0.756 ± 0.053. In the case of FYLHGNGSDNLF [YGR153W C-terminal 12 aa], the protein stability index is reported as 0.7164 ± 0.0016. GAALMALLGKWA [ZRT2 C-terminal 12 aa] was tested, and the protein stability index was 0.725 ± 0.021. GARIGLQGYKSH [YNL184C C-terminal 12 aa] showed a protein stability index of 0.70081 ± 0.00013. GDKLISPLKKAF [TKL1 C-terminal 12 aa] gave a protein stability index of 0.675 ± 0.013. Sequence GDYSFNGRVTDF [SDH8 C-terminal 12 aa] has a protein stability index of 0.711 ± 0.015. GEKKQKGQALQF [RPL42A C-terminal 12 aa] showed a protein stability index of 0.68 ± 0.025. In the case of GETSSSSAVAEV [AQY1 C-terminal 12 aa], the protein stability index is reported as 0.6874 ± 0.0045. With GHNWLIFTRRRL [CBT1 C-terminal 12 aa] the protein stability index was 0.718 ± 0.012. GIMVSPMKTNQR [SWI5 C-terminal 12 aa] was tested, and the protein stability index was 0.708 ± 0.025. GIVNFWSLEKAA [CIA1 C-terminal 12 aa] was tested, and the protein stability index was 0.716 ± 0.012. In the case of GIYSAVIDQTGF [RRP9 C-terminal 12 aa], the protein stability index is reported as 0.705 ± 0.011. GKFKSAVFEHAG [SRV2 C-terminal 12 aa] gave a protein stability index of 0.703 ± 0.026. GKKGQHVGCCVC [YFL066C C-terminal 12 aa] was tested, and the protein stability index was 0.722 ± 0.0084. With “GKLLVPLVLYQI [YDR182W-A C-terminal 12 aa]” the protein stability index was 0.673 ± 0.019. In the case of GKLPSSLLSYFV [ZUO1 C-terminal 12 aa], the protein stability index is reported as 0.7219 ± 0.0065. GKRNYLLSVTFV [YCR006C C-terminal 12 aa] showed a protein stability index of 0.653 ± 0.012. Sequence GKWYCDDCKKKL [PHO23 C-terminal 12 aa] has a protein stability index of 0.729 ± 0.026. GLSIDTRSAYFV [YPL251W C-terminal 12 aa] showed a protein stability index of 0.725 ± 0.019. GLSPIRYFIPQH [YNL114C C-terminal 12 aa] showed a protein stability index of 0.659 ± 0.017. Work on GNLRDTLIETYS [TIF6 C-terminal 12 aa] yielded a protein stability index of 0.6559 ± 0.0033. Sequence GNNGNNNNTTNL [PET123 C-terminal 12 aa] has a protein stability index of 0.672 ± 0.008. In the case of GNSVNPYNGRIN [SGF73 C-terminal 12 aa], the protein stability index is reported as 0.718 ± 0.019. In the case of GNTENGTLKKKH [BSC5 C-terminal 12 aa], the protein stability index is reported as 0.685 ± 0.0072. “GPCCMYIGCGCG [YBR056C-B C-terminal 12 aa]” was tested, and the protein stability index was 0.6658 ± 0.0036. With GPCVDALLSLSE [VPS9 C-terminal 12 aa] the protein stability index was 0.74 ± 0.0083. With GPEKAAELAFLA [YML079W C-terminal 12 aa] the protein stability index was 0.685 ± 0.024. Work on GQVIDPLKAPFK [UTP14 C-terminal 12 aa] yielded a protein stability index of 0.6757 ± 0.0012. Sequence GRPEQAPECKQS [NAP1 C-terminal 12 aa] has a protein stability index of 0.688 ± 0.0078. In the case of GSEHSDPFSTFY [DBF20 C-terminal 12 aa], the protein stability index is reported as 0.748 ± 0.0093. GVAKSMGIKVVP [MRPL19 C-terminal 12 aa] gave a protein stability index of 0.652 ± 0.0064. GVALAGALAFLI [HOR7 C-terminal 12 aa] showed a protein stability index of 0.68751 ± 0.00021. In the case of GVEKYWGILSSD [SCW10 C-terminal 12 aa], the protein stability index is reported as 0.7123 ± 0.0033. GYLIWSMGNRRR [YFL051C C-terminal 12 aa] showed a protein stability index of 0.731 ± 0.018. HAAEQILKHFAA [THI4 C-terminal 12 aa] was tested, and the protein stability index was 0.697 ± 0.013. Sequence HATTVIDGKIKV [YHI9 C-terminal 12 aa] has a protein stability index of 0.693 ± 0.0079. In the case of HDDKPWYKAMLE [GAL2 C-terminal 12 aa], the protein stability index is reported as 0.7493 ± 0.0048. HFANFKRTIEEK [AMD1 C-terminal 12 aa] showed a protein stability index of 0.729 ± 0.049. Work on “HFCYIGRITTHT [YDL114W-A C-terminal 12 aa]” yielded a protein stability index of 0.681 ± 0.017. “HFLQKFFKLFDN [YMR052C-A C-terminal 12 aa]” showed a protein stability index of 0.734 ± 0.0093. For HGGTISLCRFGG [SWT21 C-terminal 12 aa], the protein stability index was 0.686 ± 0.023. With HGNVFHIESICG [YLL047W C-terminal 12 aa] the protein stability index was 0.655 ± 0.053. HGRESANGISKQ [YLR374C C-terminal 12 aa] gave a protein stability index of 0.679 ± 0.015. HGTAKALAAAKK [RPL29 C-terminal 12 aa] was tested, and the protein stability index was 0.7098 ± 0.0054. Work on HIRKERTLYIYI [PIH1 C-terminal 12 aa] yielded a protein stability index of 0.60684 ± 0.00034. HKKEVVSKGDDY [MAP2 C-terminal 12 aa] was tested, and the protein stability index was 0.6695 ± 0.0046. In the case of HLGKFFVKQKIL [ERP1 C-terminal 12 aa], the protein stability index is reported as 0.696 ± 0.042. For HLSGSTIDTTVV [DSE1 C-terminal 12 aa], the protein stability index was 0.6624 ± 0.0029. HSDSADTHTHKH [MMT2 C-terminal 12 aa] gave a protein stability index of 0.693 ± 0.025. HSITEGSYIYIK [YOR062C C-terminal 12 aa] was tested, and the protein stability index was 0.687 ± 0.062. “HSVWSQSTINND [YML034C-A C-terminal 12 aa]” showed a protein stability index of 0.725 ± 0.015. Work on HVCVDVDVIVST [TRM12 C-terminal 12 aa] yielded a protein stability index of 0.6505 ± 0.0056. HVKDHQPGKPFI [YDR433W C-terminal 12 aa] gave a protein stability index of 0.689 ± 0.023. “HYPSSDIRGDIL [YOR161C-C C-terminal 12 aa]” gave a protein stability index of 0.6911 ± 0.0014. IAFPQRKYAIKA [RPL35A C-terminal 12 aa] gave a protein stability index of 0.299 ± 0.024.
